From article PMC11947305 (Nature Communications, 2025)
Each block holds one binder with its values, some of them ahead of it.

B1: GST-tagged human HPS4 Δ289-518 (natural protein)
chain: MATSTSTEAKSASWWNYFFLYDGSKVKEEGDPTRAGICYFYPSQTLLDQQELLCGQIAGVVRCVSDISDSPPTLVRLRKLKFAIKVDGDYLWVLGCAVELPDVSCKRFLDQLVGFFNFYNGPVSLAYENCSQEELSTEWDTFIEQILKNTSDLHKIFNSLWNLDQTKVEPLLLLKAARILQTCQRSPHILAGCILYKGLIVSTQLPPSLTAKVLLHRTAPQEQRLPTGEDAPQEHGAALPPNVQIIPVFVTKEEAISLHEFPVEQMTRSLASPAGLQDGSAQHHPKGGGPSADGISSRLTPAESCMGLVRMNLYTHCVKGLVLSLLAEEPLLGDSAAIEEVYHSSLASLNGLEVHLKETLPRDEAASTSSTYNFTHYDRIQSLLMANLPQVATPQDRRFLQAVSLMHSEFAQLPALYEMTVRNASTAVYACCNPIQETYFQQLAPAARSSGFPNPQDGAFSLSGKAKQKLLKHGVNLL
B3: HPS1 (untagged human HPS1, residues 1-700) (natural protein)
chain: MKCVLVATEGAEVLFYWTDQEFEESLRLKFGQSENEEEELPALEDQLSTLLAPVIISSMTMLEKLSDTYTCFSTENGNFLYVLHLFGECLFIAINGDHTESEGDLRRKLYVLKYLFEVHFGLVTVDGHLIRKELRPPDLAQRVQLWEHFQSLLWTYSRLREQEQCFAVEALERLIHPQLCELCIEALERHVIQAVNTSPERGGEEALHAFLLVHSKLLAFYSSHSASSLRPADLLALILLVQDLYPSESTAEDDIQPSPRRARSSQNIPVQQAWSPHSTGPTGGSSAETETDSFSLPEEYFTPAPSPGDQSSGSTIWLEGGTPPMDALQIAEDTLQTLVPHCPVPSGPRRIFLDANVKESYCPLVPHTMYCLPLWQGINLVLLTRSPSAPLALVLSQLMDGFSMLEKKLKEGPEPGASLRSQPLVGDLRQRMDKFVKNRGAQEIQSTWLEFKAKAFSKSEPGSSWELLQACGKLKRQLCAIYRLNFLTTAPSRGGPHLPQHLQDQVQRLMREKLTDWKDFLLVKSRRNITMVSYLEDFPGLVHFIYVDRTTGQMVAPSLNCSQKTSSELGKGPLAAFVKTKVWSLIQLARRYLQKGYTTLLFQEGDFYCSYFLWFENDMGYKLQMIEVPVLSDDSVPIGMLGGDYYRKLLRYYSKNRPTEAVRCYELLALHLSVIPTDLLVQQAGQLARRLWEASRIPLL

Columns and labels:
[1] = molecular target: B3; experiment: cryo-EM structure
[2] = molecular target: T1, Flag-tagged HPS4 wild-type (human, UniProt Q9NQG7 1-708); experiment: pull-down
T1 sequence: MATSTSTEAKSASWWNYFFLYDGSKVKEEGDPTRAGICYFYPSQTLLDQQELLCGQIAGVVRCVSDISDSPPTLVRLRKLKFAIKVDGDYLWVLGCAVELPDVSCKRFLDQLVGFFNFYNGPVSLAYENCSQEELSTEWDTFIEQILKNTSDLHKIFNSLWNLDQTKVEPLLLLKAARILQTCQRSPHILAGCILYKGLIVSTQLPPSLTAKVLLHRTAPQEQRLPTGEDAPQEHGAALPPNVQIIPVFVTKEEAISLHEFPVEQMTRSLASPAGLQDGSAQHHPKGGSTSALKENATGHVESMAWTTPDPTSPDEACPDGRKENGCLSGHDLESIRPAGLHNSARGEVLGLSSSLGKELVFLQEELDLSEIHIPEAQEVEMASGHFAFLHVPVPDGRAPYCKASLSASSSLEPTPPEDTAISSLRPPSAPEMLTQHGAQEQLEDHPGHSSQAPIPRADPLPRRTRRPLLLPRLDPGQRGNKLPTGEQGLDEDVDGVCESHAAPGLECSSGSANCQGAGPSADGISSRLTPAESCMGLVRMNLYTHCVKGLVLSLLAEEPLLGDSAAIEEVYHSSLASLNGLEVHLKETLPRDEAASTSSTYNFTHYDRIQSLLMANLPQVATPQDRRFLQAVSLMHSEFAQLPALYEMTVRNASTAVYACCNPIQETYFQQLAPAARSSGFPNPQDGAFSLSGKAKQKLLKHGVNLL

[3] = molecular target: T2, GST-tagged human HPS4 (residues 1-708) (human, UniProt Q9NQG7 1-708); experiment: SEC
T2 sequence: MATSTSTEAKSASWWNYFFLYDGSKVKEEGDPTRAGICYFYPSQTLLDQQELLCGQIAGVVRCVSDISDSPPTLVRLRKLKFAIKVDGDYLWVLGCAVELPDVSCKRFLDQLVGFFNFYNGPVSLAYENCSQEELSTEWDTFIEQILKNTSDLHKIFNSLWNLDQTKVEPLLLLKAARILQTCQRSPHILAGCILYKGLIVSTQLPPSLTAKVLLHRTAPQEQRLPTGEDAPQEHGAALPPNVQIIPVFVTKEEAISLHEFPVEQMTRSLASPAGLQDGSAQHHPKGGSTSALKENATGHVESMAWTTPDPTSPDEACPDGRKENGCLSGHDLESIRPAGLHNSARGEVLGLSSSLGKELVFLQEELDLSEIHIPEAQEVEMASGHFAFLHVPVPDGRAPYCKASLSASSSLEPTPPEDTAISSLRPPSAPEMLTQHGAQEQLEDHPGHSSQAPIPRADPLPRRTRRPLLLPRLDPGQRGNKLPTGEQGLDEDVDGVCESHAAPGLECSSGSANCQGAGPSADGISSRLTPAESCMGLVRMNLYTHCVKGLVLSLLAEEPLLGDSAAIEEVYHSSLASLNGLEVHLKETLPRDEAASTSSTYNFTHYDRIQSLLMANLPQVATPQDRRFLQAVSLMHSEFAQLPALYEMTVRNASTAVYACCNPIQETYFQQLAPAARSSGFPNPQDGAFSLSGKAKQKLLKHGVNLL

[4] = molecular target: B1; experiment: SEC

Binder: B1
- binding result [1]: binds

- binding result [2]: binds
B2: His-tagged mouse Rab9A Q66L (residues 2-199) (natural protein)
chain: AGKSSLFKIILLGDGGVGKSSLMNRYVTNKFDSQLFHTIGVEFLNKDLEVDGHFVTMQIWDTAGLERFRSLRTPFYRGSDCCLLTFSVDDSQSFQNLSNWKKEFIYYADVKEPESFPFVILGNKTDIKERQVSTEEAQAWCKDNGDYPYFETSAKDSTNVAAAFEEAVRRILATEDRSEHLIQTDTVNLHRKPKPNSS

Binder: B3
- binding result [3]: binds
- stoichiometry N [4]: 1
